# Laboratory results reported in patent US20160243215A1.
# Experiments:
# [1] = molecular target: 459C full-length gp160 Env on SHIV (HIV-1 clade C, isolate 459C); assay: cell-based or functional assay
# [2] = molecular target: 405C full-length gp160 Env on SHIV (HIV-1 clade C, isolate 405C); assay: cell-based or functional assay
# [3] = molecular target: 405C gp140 trimer (405C gp140-foldon, gp140Fd) (HIV-1 clade C, isolate 405C); assay: SPR; IgG captured on protein A, trimer flowed over
# [4] = molecular target: 939C gp120 monomer (HIV-1 clade C, isolate 939C); assay: SPR; IgG captured on protein A, Env flowed over; 1:1 model
# [5] = molecular target: 939C gp140 trimer (939C gp140-foldon, gp140Fd) (HIV-1 clade C, isolate 939C); assay: as above
# [6] = molecular target: 459C gp140 trimer (459C gp140-foldon, gp140Fd) (HIV-1 clade C, isolate 459C); assay: as above
# [7] = molecular target: 459C gp120 monomer (HIV-1 clade C, isolate 459C); assay: as above
# [8] = molecular target: 405C gp140 trimer (405C gp140-foldon, gp140Fd) (HIV-1 clade C, isolate 405C); assay: as above
# [9] = molecular target: 405C gp120 monomer (HIV-1 clade C, isolate 405C); assay: as above
# [10] = molecular target: 405C gp140 trimer (405C gp140-foldon, gp140Fd) (HIV-1 clade C, isolate 405C); assay: SPR (Example 8); IgG captured on protein A, trimer flowed over
# [11] = molecular target: 939C gp140 trimer (939C gp140-foldon, gp140Fd) (HIV-1 clade C, isolate 939C); assay: SPR; 17b IgG captured on protein A, trimer at 1000 nM with against without bound CD4
# [12] = molecular target: 459C gp140 trimer (459C gp140-foldon, gp140Fd) (HIV-1 clade C, isolate 459C); assay: as above
# [13] = molecular target: 405C gp140 trimer (405C gp140-foldon, gp140Fd) (HIV-1 clade C, isolate 405C); assay: as above
# [14] = molecular target: 939C gp140 trimer (939C gp140-foldon, gp140Fd) (HIV-1 clade C, isolate 939C); assay: SPR; 3,500 RU IgG captured on protein A, Env flowed over; 1:1 model
# [15] = molecular target: 459C gp140 trimer (459C gp140-foldon, gp140Fd) (HIV-1 clade C, isolate 459C); assay: as above
# [16] = molecular target: 405C gp140 trimer (405C gp140-foldon, gp140Fd) (HIV-1 clade C, isolate 405C); assay: as above
# [17] = molecular target: 939C gp140 trimer (939C gp140-foldon, gp140Fd) (HIV-1 clade C, isolate 939C); assay: SPR; 4,500 RU IgG captured on protein A, Env flowed over
# [18] = molecular target: 405C gp140 trimer (405C gp140-foldon, gp140Fd) (HIV-1 clade C, isolate 405C); assay: as above
# [19] = molecular target: 459C gp120 monomer (HIV-1 clade C, isolate 459C); assay: SPR; IgG captured on protein A, Env flowed over; 1:1 model (monomer rates are rough estimates)
# [20] = molecular target: 405C gp120 monomer (HIV-1 clade C, isolate 405C); assay: as above
# [21] = molecular target: 939C gp120 monomer (HIV-1 clade C, isolate 939C); assay: SPR; CD4 coupled to CM5 chip, Env flowed over; 1:1 model
# [22] = molecular target: 939C gp140 trimer (939C gp140-foldon, gp140Fd) (HIV-1 clade C, isolate 939C); assay: as above
# [23] = molecular target: 459C gp140 trimer (459C gp140-foldon, gp140Fd) (HIV-1 clade C, isolate 459C); assay: as above
# [24] = molecular target: 459C gp120 monomer (HIV-1 clade C, isolate 459C); assay: as above
# [25] = molecular target: 405C gp140 trimer (405C gp140-foldon, gp140Fd) (HIV-1 clade C, isolate 405C); assay: as above
# [26] = molecular target: 405C gp140 trimer (405C gp140-foldon, gp140Fd) (HIV-1 clade C, isolate 405C); assay: SPR; CD4 coupled to CM5 chip, Env flowed over; 1:1 model; 405C gp140 trimer as analyte
# [27] = molecular target: 405C gp120 monomer (HIV-1 clade C, isolate 405C); assay: SPR; CD4 coupled to CM5 chip, Env flowed over; 1:1 model; 405C gp120 monomer as analyte
substance,measurement,setting,value
2F5 IgG (antibody),"IC50 Titers (TZM.bl cells, ug/ml)",[1],> 50 µg/mL
same,"IC50 Titers (TZM.bl cells, ug/ml)",[2],> 50 µg/mL
2G12 IgG (antibody),"IC50 Titers (TZM.bl cells, ug/ml)",[1],> 50 µg/mL
same,"IC50 Titers (TZM.bl cells, ug/ml)",[2],> 50 µg/mL
3BNC117 IgG (antibody),fold lower magnitude of binding than 459C and 939C trimers,[3],5 fold
same,Kd,[4],0.172 µM
same,koff,[4],0.000961 s⁻¹
same,kon,[4],6450 M⁻¹ s⁻¹
same,Kd,[5],0.0271 µM
same,koff,[5],0.000224 s⁻¹
same,kon,[5],8330 M⁻¹ s⁻¹
same,Kd,[6],0.00124 µM
same,koff,[6],1.04e-05 s⁻¹
same,kon,[6],8500 M⁻¹ s⁻¹
same,Kd,[7],0.0951 µM
same,koff,[7],0.0005 s⁻¹
same,kon,[7],6130 M⁻¹ s⁻¹
same,Kd,[8],0.0783 µM
same,koff,[8],0.000322 s⁻¹
same,kon,[8],4110 M⁻¹ s⁻¹
same,Kd,[9],0.0858 µM
same,koff,[9],0.00042 s⁻¹
same,kon,[9],4900 M⁻¹ s⁻¹
same,fold lower magnitude of binding than Env 459C and 939C trimers,[10],5 fold
same,"IC50 Titers (TZM.bl cells, ug/ml)",[1],5.97 µg/mL
same,"IC50 Titers (TZM.bl cells, ug/ml)",[2],4.94 µg/mL
4E10 IgG (antibody),"IC50 Titers (TZM.bl cells, ug/ml)",[1],> 50 µg/mL
same,"IC50 Titers (TZM.bl cells, ug/ml)",[2],18.2 µg/mL
17b IgG (antibody),fold increase in magnitude of binding when the trimer is bound to CD4,[11],4 fold
same,fold increase in magnitude of binding when the trimer is bound to CD4,[12],4 fold
same,fold increase in magnitude of binding when the trimer is bound to CD4,[13],4 fold
PG9 IgG (antibody),Kd,[14],0.157 µM
same,koff,[14],0.00126 s⁻¹
same,kon,[14],8010 M⁻¹ s⁻¹
same,Kd,[15],0.448 µM
same,koff,[15],0.0032 s⁻¹
same,kon,[15],7150 M⁻¹ s⁻¹
same,Kd,[16],0.335 µM
same,koff,[16],0.000662 s⁻¹
same,kon,[16],1970 M⁻¹ s⁻¹
same,"IC50 Titers (TZM.bl cells, ug/ml)",[1],> 50 µg/mL
same,"IC50 Titers (TZM.bl cells, ug/ml)",[2],17.4 µg/mL
PG16 IgG (antibody),Kd,[17],1.26 µM
same,koff,[17],0.00286 s⁻¹
same,kon,[17],2410 M⁻¹ s⁻¹
same,Kd,[18],1.45 µM
same,koff,[18],0.00151 s⁻¹
same,"IC50 Titers (TZM.bl cells, ug/ml)",[1],6.7 µg/mL
same,"IC50 Titers (TZM.bl cells, ug/ml)",[2],2.05 µg/mL
PGT121 IgG (antibody),Kd,[5],0.0257 µM
same,koff,[5],0.00043 s⁻¹
same,kon,[5],16700 M⁻¹ s⁻¹
same,Kd,[6],0.00556 µM
same,koff,[6],8.73e-05 s⁻¹
same,kon,[6],15700 M⁻¹ s⁻¹
same,Kd,[8],0.0106 µM
same,koff,[8],0.000104 s⁻¹
same,kon,[8],9780 M⁻¹ s⁻¹
same,Kd,[19],0.123 µM
same,koff,[19],0.000824 s⁻¹
same,kon,[19],6720 M⁻¹ s⁻¹
same,Kd,[20],0.0642 µM
same,koff,[20],0.000492 s⁻¹
same,kon,[20],7670 M⁻¹ s⁻¹
PGT126 IgG (antibody),Kd,[5],0.00663 µM
same,koff,[5],0.000232 s⁻¹
same,kon,[5],35000 M⁻¹ s⁻¹
same,Kd,[6],0.0083 µM
same,koff,[6],0.000243 s⁻¹
same,kon,[6],29500 M⁻¹ s⁻¹
same,Kd,[8],0.00983 µM
same,koff,[8],0.000282 s⁻¹
same,kon,[8],28700 M⁻¹ s⁻¹
same,Kd,[19],0.0413 µM
same,koff,[19],0.000592 s⁻¹
same,kon,[19],14800 M⁻¹ s⁻¹
same,Kd,[20],0.0383 µM
same,koff,[20],0.0012 s⁻¹
same,kon,[20],31400 M⁻¹ s⁻¹
PGT128 IgG (antibody),"IC50 Titers (TZM.bl cells, ug/ml)",[1],0.65 µg/mL
same,"IC50 Titers (TZM.bl cells, ug/ml)",[2],45.9 µg/mL
Soluble two-domain CD4 (from UniProt P01730 26-208) (receptor),Kd,[21],0.0159 µM
same,koff,[21],0.00031 s⁻¹
same,kon,[21],19500 M⁻¹ s⁻¹
same,Kd,[22],0.0125 µM
same,koff,[22],0.000206 s⁻¹
same,kon,[22],16500 M⁻¹ s⁻¹
same,Kd,[23],0.00417 µM
same,koff,[23],9.89e-05 s⁻¹
same,kon,[23],23700 M⁻¹ s⁻¹
same,Kd,[24],0.0269 µM
same,koff,[24],0.00049 s⁻¹
same,kon,[24],18200 M⁻¹ s⁻¹
same,koff,[25],0.000196 s⁻¹
same,kon,[25],15400 M⁻¹ s⁻¹
same,Kd,[26],0.0123 µM
same,koff,[27],0.000327 s⁻¹
same,kon,[27],5560 M⁻¹ s⁻¹
VRC01 IgG (antibody),fold lower magnitude of binding than 459C and 939C trimers,[3],5 fold
same,Kd,[4],0.0573 µM
same,koff,[4],0.000249 s⁻¹
same,kon,[4],4350 M⁻¹ s⁻¹
same,Kd,[5],0.00352 µM
same,koff,[5],1.55e-05 s⁻¹
same,kon,[5],4400 M⁻¹ s⁻¹
same,Kd,[6],0.0075 µM
same,koff,[6],4.75e-05 s⁻¹
same,kon,[6],6990 M⁻¹ s⁻¹
same,Kd,[7],0.328 µM
same,koff,[7],0.00109 s⁻¹
same,kon,[7],3320 M⁻¹ s⁻¹
same,Kd,[8],0.00742 µM
same,koff,[8],4.52e-05 s⁻¹
same,kon,[8],6090 M⁻¹ s⁻¹
same,Kd,[9],0.0353 µM
same,koff,[9],0.000278 s⁻¹
same,kon,[9],7870 M⁻¹ s⁻¹
same,fold lower magnitude of binding than Env 459C and 939C trimers,[10],5 fold
same,"IC50 Titers (TZM.bl cells, ug/ml)",[1],11.9 µg/mL
same,"IC50 Titers (TZM.bl cells, ug/ml)",[2],13.3 µg/mL
b12 IgG (antibody),"IC50 Titers (TZM.bl cells, ug/ml)",[1],> 50 µg/mL
same,"IC50 Titers (TZM.bl cells, ug/ml)",[2],> 50 µg/mL
sCD4 (soluble CD4) (from UniProt P01730 26-208) (receptor),"IC50 Titers (TZM.bl cells, ug/ml)",[1],48.7 µg/mL
same,"IC50 Titers (TZM.bl cells, ug/ml)",[2],> 50 µg/mL
